Blank lines part the entries; values can stand above or below the molecule they belong to.
Tests used:
Galectin-3 = target: T1, Galectin-3 (Homo sapiens, UniProt P17931); assay: SPR steady-state KD; 1H-15N HSQC NMR titration (slow exchange); type: binding
T1 construct: gene LGALS3; CRD domain (114–250), C-terminal 6His-tag

[1] = target: full length human Galectin-3 (1-250) (human) (UniProt P17931); assay: dynamic light scattering; after centrifugation and filtration; with 140 µM LNnT (CRD up to 1.2 mM LNnT); 41 µM CRD, 37 µM FL; 5 mM potassium phosphate pH 7.4; 25°C
[2] = target: full length human Galectin-3 (1-250) (human) (UniProt P17931); assay: dynamic light scattering; before filtration, after purification and freezing at -80°C; no glycan; 41 µM CRD, 37 µM FL; 5 mM potassium phosphate pH 7.4; 25°C
[3] = target: human Galectin-3 Carbohydrate Recognition Domain (114-250) (human) (UniProt P17931); assay: as above

T1 sequence (P17931 114-250): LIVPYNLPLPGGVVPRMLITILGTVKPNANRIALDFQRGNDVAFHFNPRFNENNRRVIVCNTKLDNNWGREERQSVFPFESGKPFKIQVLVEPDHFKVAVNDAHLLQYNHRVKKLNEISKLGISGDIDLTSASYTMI

Molecule: CC(=O)N[C@H]1[C@H](O[C@H]2[C@@H](O)[C@@H](CO)O[C@@H](O[C@H]3[C@H](O)[C@@H](O)C(O)O[C@@H]3CO)[C@@H]2O)O[C@H](CO)[C@@H](O[C@@H]2O[C@H](CO)[C@H](O)[C@H](O)[C@H]2O)[C@@H]1O (some centres unmarked) [LNnT, lacto-N-neoTetraose]
Kd (Galectin-3): 140 ± 17 µM

% mass of size <100 nm (46.73 nm), with 140 µM LNnT [1]: 8.7% | % mass of size >100 nm, with 140 µM LNnT [1]: 91.3% | % mass of size >100 nm [2]: 67%
Molecule: full length human Galectin-3 (1-250) (from UniProt P17931 1-250) (natural protein)

% mass of size >100 nm [3]: 0.7%
Molecule: human Galectin-3 Carbohydrate Recognition Domain (114-250) (from UniProt P17931 114-250) (domain or fragment)

Source: PMC4219786, “Glycan Dependence of Galectin-3 Self-Association Properties” (PLoS ONE, 2014)
